Assay results reported in publication PMC5882710, “Amphotericin B-conjugated polypeptide hydrogels as a novel innovative strategy for fungal infections” (Royal Society Open Science, 2018).
Converted amounts (≈) assume the structure as drawn. Like-named read-outs stand apart in the source and are kept apart here.

Tests used:
Candida albicans [1] = assay: microbe, parasite or virus in culture; assay type: cell-based
Protocol: (§1) The minimum inhibitory concentration (MIC) of the Dex, AmB, Nap-FFDKY, Npx-FFDKY, Fmoc-FFDKY, Nap-AmB, Npx-AmB and Dex-AmB hydrogels was determined by a serial 2-fold dilution of test samples. Fourteen different concentrations of drugs and hydrogels were prepared in DMF solution. One millilitre of the fungal strain […] colony-forming unit (CFU)/tube was inoculated into each tube containing different concentrations (1 ml) of test samples and incubated at 28°C (200 rpm) for 24 h. The MIC was defined as the minimum concentration of the sample inhibiting the visible growth of the microorganism. The experiment was repeated at least three times. Based on the values of MIC, 0.1 ml of the fungal strain containing different concentrations of test samples which inhibited the visible growth of the microorganism was subcultivated on the Sabouraud's dextrose agar plates, and incubated at 28°C for 48 h. The minimum bactericidal concentration (MBC) determination was defined as the minimum concentration of the sample sterilizing the visible growth of the microorganism (lower than 5 CFU/plate). The experiment was repeated at least three times. Based on the values of MIC, the fungal strain containing 1 × MIC and 2 × MIC concentrations of test samples was incubated at 28°C. A test suspension containing 0.1 ml was taken out and used to evaluate fungus colonies at 0, 1, 2, 4, 6, 8, 12 and 24 h.

Candida albicans [2] = assay: Time-kill curves at 1 x MIC and 2 x MIC; assay type: cell-based; conditions: C. albicans, 28°C, n = 3; for time for which antifungal activity is exhibited in time-kill curves: sampled 0, 1, 2, 4, 6, 8, 12 and 24 h
Protocol: as §1

[3] = low bioavailability; cited from earlier work
Text: Invasive fungal infection has a significant influence on animal and plant life, which is a major cause of mortality that kills approximately 1.5 million people every year. Amphotericin B (AmB) is a broad-spectrum antifungal macrolide polyene antibiotic. Its antifungal effect is exerted by forming complexes with membrane sterols to allow the increase in the permeability of the fungal membrane. AmB is the most common antifungal agent used in clinical practice despite strong side-effects with low solubility and low bioavailability (less than 0.9%). Many researchers attempt ...

[4] = Solubility of hydrogelators in aqueous solutions; conditions: water, PBS solutions (pH = 7.4) and culture solutions
[5] = In vitro drug release of AmB or Dex from hydrogels; assay type: physicochemical; conditions: for final drug release percentage of AmB after 12 h: 0.3 ml PBS pH 7.4 containing trypsin 1 µg ml^−1, 37°C, HPLC-UV 383 nm; for final drug release percentage of AmB after 12 h / final drug release percentage of Dex after 12 h: n = 3; for constant release rate of AmB / final drug release percentage of Dex after 12 h / constant release rate of Dex: PBS pH 7.4 with trypsin 1 µg ml^−1, 37°C; for constant release rate of AmB / constant release rate of Dex: entire measurement period (12 h); for diffusion exponent n of AmB release (Mt/M∞ = k·t^n) / rate constant k of AmB release (Mt/M∞ = k·t^n) / diffusion exponent n of Dex release (Mt/M∞ = k·t^n) / rate constant k of Dex release (Mt/M∞ = k·t^n): fit of release data, PBS pH 7.4, 37°C; for final drug release percentage of Dex after 12 h: HPLC-UV 240 nm
Protocol: The 2.0 wt%, 3.0 wt% and 4.0 wt% of Nap-AmB, Npx-AmB and Dex-AmB hydrogels within the 0.3 ml PBS solution containing trypsin (1 µg ml^−1) were prepared for drug release study. A quantity of 0.2 ml of the upper buffer solution was taken out and used to run HPLC at every 30 min and 0.2 ml of fresh PBS buffer solution containing trypsin (1 µg ml^−1) was added back each time. The experiments were conducted at 37°C. The areas of peaks in HPLC spectra were used to determine the percentage of AmB or Dex released from their corresponding hydrogels. The liquid chromatography system (Agilent 1200 series, America) comprised Degasser G1322A, Quaternary pump G1312B, Thermostated auto sampler HiP-ALS G1367C, column oven G1316A and ultraviolet detector G1314A. Separation was achieved using a SepaxGP-C18 reversed-phase column (250 mm × 4.6 mm internal diameter, 5 µm particle size) (America). The mobile phase of AmB analysis was acetonitrile-water (43 : 57, containing 0.05% TFA) at a flow-rate of 1 ml min^−1. Chromatography was carried out at 30°C and the detector wavelengths were set at 383 nm. The mobile phase of Dex analysis was acetonitrile-water (45 : 55, containing 0.05% TFA) at a flow rate of 1 ml min^−1. Chromatography was carried out at 30°C and the detector wavelengths were set at 240 nm. The experiment was conducted in three parallel experiments. […] Mt/M∞ is the fractional drug release, Mt is the amount of drug released at time t, M∞ is the maximum amount of drug released at time ∞, t is the release time, k is a rate constant of kinetic release and n is the diffusion exponent, characteristic of the drug release mechanism.

[6] = Hydrogel formation (gelation time, minimum gel concentration); assay type: physicochemical; conditions: for minimum gel concentration needed for gelation: PBS solutions at 37°C; for gelation time: room temperature, PBS pH 7.4, 2 equiv. Na2CO3
Protocol: General procedure for the formation of hydrogels: all the compounds dissolved in phosphate-buffered saline (PBS, pH 7.4). 2 equiv. of Na2CO3 (0.1 mol l^−1) were used to neutralize the carboxyl groups (─COOH) of compounds and adjust the pH to neutral. Then the hydrogels were formed at room temperature (22–25°C) or 37°C within 30 min.

SMILES	time for which antifungal activity is exhibited in time-kill curves (Candida albicans [2]) [h]	solubility in aqueous solutions (in words) [4]	final drug release percentage of AmB after 12 h ([5]; 2.0 wt% hydrogel) [%]	constant release rate of AmB ([5]; 2.0 wt% hydrogel)	diffusion exponent n of AmB release (Mt/M∞ = k·t^n) ([5]; 2.0 wt% hydrogel)	rate constant k of AmB release (Mt/M∞ = k·t^n) ([5]; 2.0 wt% hydrogel)	final drug release percentage of AmB after 12 h ([5]; 3.0 wt% hydrogel) [%]	constant release rate of AmB ([5]; 3.0 wt% hydrogel) [mg ml^−1 per hour]	diffusion exponent n of AmB release (Mt/M∞ = k·t^n) ([5]; 3.0 wt% hydrogel)	rate constant k of AmB release (Mt/M∞ = k·t^n) ([5]; 3.0 wt% hydrogel)	final drug release percentage of AmB after 12 h ([5]; 4.0 wt% hydrogel) [%]	constant release rate of AmB ([5]; 4.0 wt% hydrogel) [mg ml^−1 per hour]	diffusion exponent n of AmB release (Mt/M∞ = k·t^n) ([5]; 4.0 wt% hydrogel)	rate constant k of AmB release (Mt/M∞ = k·t^n) ([5]; 4.0 wt% hydrogel)	minimum gel concentration needed for gelation [6]	gelation time [6]	MIC (Candida albicans [1]; 24 h) [µg/mL]	MBC (Candida albicans [1]; 48 h) [µg/mL]	speed of fungistatic effect in time-kill curves (in words) (Candida albicans [2])	further results
C[C@@H]1C[C@H]2[C@@H]3CCC4=CC(=O)C=C[C@]4(C)[C@@]3(F)[C@@H](O)C[C@]2(C)[C@@]1(O)C(=O)CO [Dex, dexamethasone]	–	–	–	–	–	–	–	–	–	–	–	–	–	–	–	–	–	–	–	antifungal effect against C. albicans (in words) (Candida albicans [1]; MIC/MBC test, serial 2-fold dilution, 28°C, 24 h): less antifungal effective
C[C@@H]1[C@H](O)[C@@H](C)/C=C/C=C/C=C/C=C/C=C/C=C/C=C/[C@H](O[C@@H]2O[C@H](C)[C@@H](O)[C@H](N)[C@@H]2O)C[C@@H]2O[C@](O)(C[C@@H](O)C[C@@H](O)[C@H](O)CC[C@@H](O)C[C@@H](O)CC(=O)O[C@H]1C)C[C@H](O)[C@H]2C(=O)O [AmB, Amphotericin B]	2	–	–	–	–	–	–	–	–	–	–	–	–	–	–	–	–	–	–	MBC (Candida albicans [1]; Candida albicans, C. albicans, 0.1 ml subcultivated on Sabouraud's dextrose agar, 28°C, 48 h, lower than 5 CFU/plate, repeated at least three times, read-out: MBC): 130 µg/mL (≈ 141 µM); MIC (Candida albicans [1]; Candida albicans, C. albicans, serial 2-fold dilution, 14 concentrations prepared in DMF, 1 ml fungal strain 10^18 CFU/tube, 28°C, 200 rpm, 24 h, visible growth, repeated at least three times, read-out: MIC): 4.06 µg/mL (≈ 4.39 µM); MBC (Candida albicans [1]; Candida albicans, supplement Fig. S21, read-out: MBC): 130 µg/mL (≈ 141 µM); MIC (Candida albicans [1]; Candida albicans, supplement Fig. S21, read-out: MIC): 4.06 µg/mL (≈ 4.39 µM); bioavailability [3]: less than 0.9%
C[C@@H]1[C@H](O)[C@@H](C)/C=C/C=C/C=C/C=C/C=C/C=C/C=C/[C@H](O[C@@H]2O[C@H](C)[C@@H](O)[C@H](N)[C@@H]2O)C[C@@H]2O[C@](O)(C[C@@H](O)C[C@@H](O)[C@H](O)CC[C@@H](O)C[C@@H](O)CC(=O)O[C@H]1C)C[C@H](O)[C@H]2C(=O)NCCCC[C@H](NC(=O)[C@H](CC(=O)O)NC(=O)[C@H](Cc1ccccc1)NC(=O)[C@H](Cc1ccccc1)NC(=O)Cc1ccc2ccccc2c1)C(=O)N[C@@H](Cc1ccc(O)cc1)C(=O)O [Nap-AmB]	2	highly soluble	36.3	about 0.3188 mg ml^−1 per hour	0.6874	approximately 0.2503	47.3	~0.6114	0.5722	~0.4662	62.1	~1.015	0.5481	~0.6379	about 0.5 wt%	3 min	–	–	–	–
C[C@@H]1[C@H](O)[C@@H](C)/C=C/C=C/C=C/C=C/C=C/C=C/C=C/[C@H](O[C@@H]2O[C@H](C)[C@@H](O)[C@H](N)[C@@H]2O)C[C@@H]2O[C@](O)(C[C@@H](O)C[C@@H](O)[C@H](O)CC[C@@H](O)C[C@@H](O)CC(=O)O[C@H]1C)C[C@H](O)[C@H]2C(=O)NCCCC[C@H](NC(=O)[C@H](CC(=O)O)NC(=O)[C@H](Cc1ccccc1)NC(=O)[C@H](Cc1ccccc1)NC(=O)CCC(=O)OCC(=O)[C@@]1(O)[C@H](C)C[C@H]2[C@@H]3CCC4=CC(=O)C=C[C@]4(C)[C@@]3(F)[C@@H](O)C[C@@]21C)C(=O)N[C@@H](Cc1ccc(O)cc1)C(=O)O [Dex-AmB]	2	highly soluble	16.3	about 0.1123 mg ml^−1 per hour	0.8265	about 0.2283	19.2	~0.1994	0.6474	~0.3669	24.4	~0.3517	0.7971	~0.6436	~2.0 wt%	approximately 30 min	40.1 (≈ 19.1 µM)	643 (≈ 306 µM)	exert fungistatic effect more quickly than AmB and Nap-AmB hydrogels	final drug release percentage of Dex after 12 h ([5]; 2.0 wt% hydrogel): 28.5%; constant release rate of Dex ([5]; 2.0 wt% hydrogel): about 0.08359 mg ml^−1 per hour; diffusion exponent n of Dex release (Mt/M∞ = k·t^n) ([5]; 2.0 wt% hydrogel): 0.4404; rate constant k of Dex release (Mt/M∞ = k·t^n) ([5]; 2.0 wt% hydrogel): approximately 0.1211; final drug release percentage of Dex after 12 h ([5]; 3.0 wt% hydrogel): 39.6%; constant release rate of Dex ([5]; 3.0 wt% hydrogel): ~0.1743 mg ml^−1 per hour; diffusion exponent n of Dex release (Mt/M∞ = k·t^n) ([5]; 3.0 wt% hydrogel): 0.3576; rate constant k of Dex release (Mt/M∞ = k·t^n) ([5]; 3.0 wt% hydrogel): ~0.3039; final drug release percentage of Dex after 12 h ([5]; 4.0 wt% hydrogel): 46.8%; constant release rate of Dex ([5]; 4.0 wt% hydrogel): ~0.2867 mg ml^−1 per hour; diffusion exponent n of Dex release (Mt/M∞ = k·t^n) ([5]; 4.0 wt% hydrogel): 0.2587; rate constant k of Dex release (Mt/M∞ = k·t^n) ([5]; 4.0 wt% hydrogel): ~0.6024
COc1ccc2cc([C@H](C)C(=O)N[C@@H](Cc3ccccc3)C(=O)N[C@@H](Cc3ccccc3)C(=O)N[C@@H](CC(=O)O)C(=O)N[C@@H](CCCCNC(=O)[C@H]3[C@@H]4C[C@@H](O[C@@H]5O[C@H](C)[C@@H](O)[C@H](N)[C@@H]5O)/C=C/C=C/C=C/C=C/C=C/C=C/C=C/[C@H](C)[C@@H](O)[C@@H](C)[C@H](C)OC(=O)C[C@H](O)C[C@H](O)CC[C@@H](O)[C@H](O)C[C@H](O)C[C@](O)(C[C@@H]3O)O4)C(=O)N[C@@H](Cc3ccc(O)cc3)C(=O)O)ccc2c1 [Npx-AmB]	2	–	30.0	about 0.2406 mg ml^−1 per hour	0.7428	approximately 0.2846	38.9	~0.4837	0.7784	~0.3358	51.3	~0.8332	0.7771	~0.4387	~1.0 wt%	10 min	43.7 (≈ 23.8 µM)	349 (≈ 190 µM)	exert fungistatic effect more quickly than AmB and Nap-AmB hydrogels	–
